Assay: soluble on expression in E. coli; label from the status in PepcDB or PDB records

Sequence | soluble on expression in E. coli
MKVVRVCGGFGNQLFQYAFYLAVKHKFNETTKLDIHDMASYELHNGYELERIFNLNENYCSAEEKLAVQSTKNIFTKLLKEIKKYTPFIPRTYIKEKKHLHFSYQEVDLGTKDTSIYYRGSWQNPQYFNSIASEIREKLTFPEFTEPKSLALHQEISEHETVAVHIRRGDYLKHKALGGICDLPYYQNAIKEIEGLVEKPLFVIFSDDITWCRANINVEKVRFVDWNSGEQSFQDMHLMSLCTHNIIANSSFSWWGAWLNANPNKIVISPNKWIHYTDSMGIVPSEWIKVETSILEHHHHHH | not soluble
MTSTPEFLKQLDYEQLKYCRELCDNRIRAIEAEEKKMAWAVTDGGINYGWFRTEDYMKAVECLVATAAERWEESDKADPSGRGWLDLSIRGSRLPVSEYEALFADGQWG | not soluble
AGTKLSLMPWFHGKITREQAERLLYPPETGLFLVRESTNYPGDYTLCVSSDGKVEHYRIMYHASKLSIDEEVYFENLMQLVEHYTSDADGLCTRLIKPKVMEGTVA | soluble
MGHHHHHHSHMPKVKRSRKAPPDGWELIEPTLDELDQKMREAETEPHEGKRKVESLWPIFRIHHQKTRYIFDLFYKRKAISRELYEYCIKEGYADKNLIAKWKKQGYENLCCLRCIQTRDTNFGTNCICRVPKSKLEVGRIIECTHCGCRGCSG | soluble
MGSSHHHHHHSSGLVPRGSHMKLNRVVVTGYGVTSPIGNTPEEFWNSLATGKIGIGGITKFDHSDFDVHNAAEIQDFPFDKYFVKKDTNRFDNYSLYALYAAQEAVNHANLDVEALNRDRFGVIVASGIGGIKEIEDQVLRLHEKGPKRVKPMTLPKALPNMASGNVAMRFGANGVCKSINTACSSSNDAIGDAFRSIKFGFQDVMLVGGTEASITPFAIAGFQALTALSTTEDPTRASIPFDKDRNGFVMGEGSGMLVLESLEHAEKRGATILAEVVGYGNTCDAYHMTSPHPEGQGAIKAIKLALEEAEISPEQVAYVNAAGTSTPANEKGESGAIVAVLGKEVPVSSTKSFTGHLLGAAGAVEAIVTIEAMRHNFVPMTAGTSEVSDYIEANVVYAQGLEKEIPYAISNTFGFGGHNAVLAFKRWENR | soluble
MSLDVSVSATGHDNVTARHDSTLELTTDDFLTPAGDCILGIDADCSPAAFSDAFVAACQDAAATITLVLDTPQHRDEITGSGHPDLTFTNDRSMVGRTSTYVDDRTVFVDADKAAADVDREMVAALADGAPLTATLRVDEGHHHHHH | soluble
MQSSTEKELLTNASLTVSSDFASNLEGALPSQPITQANPRAEQTLMTTYMSSTTNQADPKTFEEQFVNLLGTFTPSQAVCNVSNVDCGTYVRGPETWSSCKLGTQAIAPNASYIQIRVQDKHSTMDRMNWKGPIEDTSPLMKSLTANFL | not soluble
MKQWREKSRQLAERGDLTPADWSNLELYCVNYSIYRKAVADLAARGFSIVNSQGGESRNPALSAKSDAERVMIKMASLLGFDPISRRKNPPETEEEDELDRLE | not soluble
RYIEKALKRPGNILIGTLPVGLDFPTRIVAEIVDAPSLTIEEIMRKAKYYLREGADIIDIGMESGKTNVEFLESVLPEIKEKINAPLSLDTLNPKEIEAGEKEVDLILSVDFGTVEEILPSKPVVLIPTNMKEGKFIEDPIGRAKALEKLKEKALNLGYKGLILDPILEHYPNFSRSLVAFYLYRMRNPQDILLAGVGNITEMMDADSVGLNALLASIAGELKISLLLTTEVSPKATGSVRELKRGIDMVLLGGVKDVGINLLILKEKRRKEQKIEFAKTIIRAKKKPVKLEEVYFKIYVVGTELAVTAYKGTNPVMTIIGKEPNEIIDTILEHFSISPRHAFYLGRELEKAYTGLKIRRSYIQEEELFGDFYFEK | not soluble
MKTDGEFVSEHLMELITQQNLTINRVATLAGLNQSTVNAMFEGRSKRPTITTIRKVCGTLGISVHDFFDFPPYNEVEK | soluble
MEVVKMPFGVPGWKWKVGKFGYTVENEPNYEEIKAKAKEVLSRTTKGIAWRGHCGSLHIPLVFEGQIIGELWEDADPKEVEIGAYWFGKWGIKVQLVKDGRVIGFIWLA | soluble
MLQPILSISGKSGLFRLVSRGKNTLIVEALDTKRRTPTYPSDRVVSLGDISIYTIEDDVPLPEVMETIYRKNEGKQLDAPALTKDNDSLRAFFGEVLPEYDVDRVYPSDIRKIISWYNLLVDNGFTTFLSDKKPAEEETTEKE | not soluble
MAEHVEIVEMAARDGLQNEKRFVPTADKIALINRLSDCGYARIEATSFVSPKWVPQLADSREVMAGIRRADGVRYSVLVPNMKGYEAAAAAHADEIAVFISASEGFSKANINCTIAESIERLSPVIGAAINDGLAIRGYVSCVVECPYDGPVTPQAVASVTEQLFSLGCHEVSLGDTIGRGTPDTVAAMLDAVLAIAPAHSLAGHYHDTGGRALDNIRVSLEKGLRVFDASVGGLGGSPFAPGAKGNVDTVAVVEMLHEMGFETGLDLDRLRSAGLFTQALRQDKAALEHHHHHH | soluble
GPGSMSVEASRPTRSQDPLPAAVIREFLEMHQQCNDQSLGQGESPTGTEKDGTRAAEARVVSAPLRVEVETTHGYVYEGRLVAMDEFYNVTLTEATKRRERLCDVERSLLTMHGFPAPAASPSTRREYVGSVLVRSGNLLMIRFPQGEGNATRVLHGAFKSMVMKVRRQINLERQKNRMERRRRKQLPVKPQSLVGKAGDPPKRTKAKKE | soluble
IDHIEVLRDGASARYGSDAIAGVINIILKSADHGGSISSKYGQYKKGDGIQRQVSGNTGFALGDNGTLNLSGEGANNDYTNRAGDDLRASSIGSTTYGQQVFRQGEPETHEGKLQYNAEYSFNDAAEFYSFGGYSKRRGETAAFYRPSNASNNIAAIYPNGYLPLIHGTLEDTTFVTGLRGELADDWHYDLSANYGKNSYELRTKTINTSLGLNTPRSFDNGTLTNDQKQLSLDLSREFNATWLPYPVSVAFGAEYLRQGYQIEAGQAESYFQTGSSGLGGFRAADAGSYSRHNFAQYLDVETNLTEKLGVSAAVRHEDYSDFGSNVSGSLSARYDFTP | not soluble
MSKTHLTEQKFSDFALHPKVVEALEKKGFHNCTPIQALALPLTLAGRDVAGQAQTGTGKTMAFLTSTFHYLLSHPAIADRKVNQPRALIMAPTRELAVQIHADAEPLAEATGLKLGLAYGGDGYDKQLKVLESGVDILIGTTGRLIDYAKQNHINLGAIQVVVLDEADRMYDLGFIKDIRWLFRRMPPANQRLNMLFSATLSYRVRELAFEQMNNAEYIEVEPEQKTGHRIKEELFYPSNEEKMRLLQTLIEEEWPDRAIIFANTKHRCEEIWGHLAADGHRVGLLTGDVAQKKRLRILDEFTRGDLDILVATDVAARGLHIPAVTHVFNYDLPDDCEDYVHRIGRTGRAGASGHSISLACEEYALNLPAIETYIGHSIPVSKYNPDALMTDLPKPLRLTRPRTGNGPRRTGAPRNRRRSG | soluble
MAHHHHHHMGAVDYEVNETHLTGAQALSDYLLDTWYVHDMPRYGAVSCIDRNVTALLRFADEWRGTNVNVFLYNSSSHHQAGLSLATYYDLFIKSFLGRDSAFMRYEAELFNEPASQSQLGFIFIGAPGGRSAGGLPGRAVGRHGPCGAARGVDCDPARRRALLRCADDAPPGGGGGACEHCGDHGARVRAVCRRQGTPEEQVRQRLRGERAAGVGAARGALCVVHAGGVPRRCAERRRGSAVRVPAAARSRLR | not soluble
MPDDKAVNGRRDFLRKTLTVIPAVTLAGYGVGHAMQTPAAEQDKPRERYQPRFFTNTEWAFVNAAVARLIPSDDNGPGAIEAGVPEFIDRQMETPYGHGALWYMQGPFVTDAAPEFGHQLKLVPRDIYRVGIAALERWSKANQGKPFAELEPSAQDDILQRLEAGQIDLQDLPAKLLFGQLLQNTHEGFFSDPQHGGNRGLVGWKLVGFPGARADFMDWADRGEKYPFPPVAISGERG | not soluble
